In patent publication WO2016167227A1 one finds fold affinity for insoluble fibrin against the 102-10 antibody (printed 102-12) data, which are given here for one molecule.

The target of the test is human-derived insoluble fibrin (human) (UniProt P02671). The test can be described thus: ELISA, peroxidase-labelled antibody on fibrin plate; 0.1 μg/mL of 443-2 gave about the signal of 10 μg/mL of the reference. For orientation: In an ELISA, binding on a coated surface is turned into a signal by an enzyme label.
Chain of UniProt P02671 (P02671 36-629 limits assumed, chain 1 of 3): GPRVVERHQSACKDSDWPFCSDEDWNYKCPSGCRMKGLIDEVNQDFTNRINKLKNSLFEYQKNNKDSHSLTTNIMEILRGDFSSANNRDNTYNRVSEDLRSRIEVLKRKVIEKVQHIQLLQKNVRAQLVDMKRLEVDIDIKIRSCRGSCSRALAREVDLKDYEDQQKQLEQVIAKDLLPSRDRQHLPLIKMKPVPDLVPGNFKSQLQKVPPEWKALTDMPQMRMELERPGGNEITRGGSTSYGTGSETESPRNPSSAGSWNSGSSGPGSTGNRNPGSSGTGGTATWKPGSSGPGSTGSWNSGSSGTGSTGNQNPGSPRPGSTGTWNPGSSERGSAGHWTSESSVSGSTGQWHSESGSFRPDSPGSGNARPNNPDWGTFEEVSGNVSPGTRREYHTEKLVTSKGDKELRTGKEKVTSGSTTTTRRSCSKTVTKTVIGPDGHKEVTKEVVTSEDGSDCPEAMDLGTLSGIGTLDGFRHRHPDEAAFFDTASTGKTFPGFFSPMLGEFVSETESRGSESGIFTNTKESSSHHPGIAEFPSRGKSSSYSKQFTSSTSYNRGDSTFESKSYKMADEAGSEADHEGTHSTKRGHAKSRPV
Chain of UniProt P02671 (chain, as listed by the source limits assumed, chain 2 of 3): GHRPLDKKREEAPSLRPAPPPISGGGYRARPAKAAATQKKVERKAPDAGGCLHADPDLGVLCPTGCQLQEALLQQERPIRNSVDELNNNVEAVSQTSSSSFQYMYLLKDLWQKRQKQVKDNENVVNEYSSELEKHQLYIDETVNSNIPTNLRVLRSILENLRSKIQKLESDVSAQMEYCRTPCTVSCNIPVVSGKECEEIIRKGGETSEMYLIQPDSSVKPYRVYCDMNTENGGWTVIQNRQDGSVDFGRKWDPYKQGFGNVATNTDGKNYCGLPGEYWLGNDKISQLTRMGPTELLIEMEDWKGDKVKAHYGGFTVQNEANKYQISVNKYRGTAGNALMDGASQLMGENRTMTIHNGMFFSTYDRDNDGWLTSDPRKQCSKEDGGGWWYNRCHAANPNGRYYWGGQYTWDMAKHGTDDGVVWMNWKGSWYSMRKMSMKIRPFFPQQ
Chain of UniProt P02671 (chain, as listed by the source limits assumed, chain 3 of 3): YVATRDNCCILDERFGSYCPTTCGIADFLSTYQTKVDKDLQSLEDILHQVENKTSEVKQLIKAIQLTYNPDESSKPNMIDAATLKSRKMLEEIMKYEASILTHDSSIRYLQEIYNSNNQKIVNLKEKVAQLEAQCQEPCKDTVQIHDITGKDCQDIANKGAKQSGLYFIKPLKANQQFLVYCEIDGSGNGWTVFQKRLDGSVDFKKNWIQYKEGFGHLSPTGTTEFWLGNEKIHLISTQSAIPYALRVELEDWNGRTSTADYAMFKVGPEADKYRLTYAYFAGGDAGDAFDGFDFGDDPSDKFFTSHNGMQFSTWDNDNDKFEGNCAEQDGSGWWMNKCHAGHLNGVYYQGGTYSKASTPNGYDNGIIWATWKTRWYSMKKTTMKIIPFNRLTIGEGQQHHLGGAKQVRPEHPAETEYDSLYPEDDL

B1: 443-2 antibody (antibody, V domains shown)
VH: QIQLVQSGPELKKPGESVKISCKASGYTFTDYAMNWVKQAPGNGLKWMGWINTQTGKPTYADDFKQRFVFSLETSATTAYLQINNLNIEDTATYFCTRLMDAWGQGASVTVSS
VL: DIVMTQSPSSLAVSAGETVTINCKSSQSLLSSGNQKNYLAWYQQKPGQSPKLLIYLASTRESGVPDRLIGSGSGTDFTLTISSMQAEDLAIYYCQQYYETPHTFGAGTKLELKR
With B1, the fold affinity for insoluble fibrin against the 102-10 antibody (printed 102-12) was determined as 100 times.
